Key:
S. cerevisiae ΔOLE1 = experiment: ΔOLE1 growth complementation assay without UFA; type: cell-based, Saccharomyces cerevisiae
Source text: S. cerevisiae ΔOLE1 (MATA OLE1::LEU2 ura3-52 his4) was used as an expression host. A synthetic expression cassette termed pOLE1 (FIG. 10, SEQ ID NO: 4) which comprises the OLE1 promoter region (SEQ ID NOs: 5 and 6), nucleotides encoding for 27 N-terminal amino acids of the OLE1 leader sequence (SEQ ID NO: 7), and a VPS13 terminator sequence (SEQ ID NO: 8) was created, and cloned into pESC-URA vector in between SacI and EcoRI sites. To test the functionality of the pOLE1 cassette, Dasher GFP synthon was inserted in between SpeI and NotI sites to create pOLE1-GFP plasmid. Competent ΔOLE1 was transformed with pOLE1-GFP, and plated on CM-Ura glucose agar plate (Teknova) containing UFA (20 mm CM-URA glucose agar plate was coated with 100 μL CM-Ura glucose medium containing 1% tergitol, and 3 μL palmitoleic acid). […] Validation of ΔOLE1 complementation was performed by restoring OLE1 activity. Specifically, native S. cerevisiae OLE1 synthon was inserted into pOLE1 cassette devoid of the leader sequence to create pOLE1-OLE1 plasmid. After transformation of ΔOLE1, and selection on CM-Ura glucose agar containing UFA, single colonies were patched onto YPD and CM-Ura glucose without UFA. After incubation at 30° C. for 5 days, growth was observed (FIG. 11A-FIG. 11E). As expected, Dasher GFP expression could not complement ΔOLE1 growth without UFA (FIG. 11A-FIG. 11E). DNA sequences which encode for desaturase variants were synthesized (to include nucleotide changes which remove restriction sites used for cloning purposes), and cloned into pOLE1 using SpeI-NotI sites (Genscript, SEQ ID NOs: 9-13). Complementation assay of ΔOLE1 with insect desaturases were performed in the same way as with OLE1 desaturase.

palmitic acid [1] = experiment: in vivo bioconversion assay of desaturases in C. tropicalis SPV053; type: cell-based, Candida tropicalis
Description: Functional expression of the heterologous desaturases was characterized by a series of in vivo bioconversion experiments. C. tropicalis SPV053 derived stains expressing insect desaturases were cultured in rich (YPD) or defined (CM glucose) media supplemented with ethanol (for induction) and saturated acid substrates (palmitic acid, methyl palmitate, methyl myristate). Small scale (2 ml) cultures were cultivated for a total of 72 hours in 24 deep well plates with substrate added after the initial 24 hours.
Positive isolates were re-patched onto YPD+300 μg/ml Zeocin and grown overnight and then stored at 4° C. Strains were inoculated from patch plates into 2 ml of YPD in 24 deep well plates (square well, pyramid bottom). Three positive clones were inoculated for each desaturase variant and the mCherry expressing control strain. Deep well plates were incubated at 30° C., 1000 rpm, and 80% humidity in the Infors HT Multitron Pro plate shaker for 24 hrs. After 24 hrs of incubation, cultures were split into equal 1 ml volumes to make two sets of identical plates. Both sets of plates were pelleted by centrifugation at 500×g. One set of plates was resuspended in 2 ml of YPD+0.3% (v/v) ethanol and the second set was resuspended in 2 ml of CM glucose+0.3% ethanol. Ethanol was added at this stage to induce recombinant enzyme expression from the ICL promoter. Cultures were incubated for another 24 hours under the same conditions before 300 mg/L palmitic acid was added to cultures from a 90 g/L stock solution in ethanol. The result was the addition of a fresh 0.3% ethanol in conjunction with the palmitic acid. A subset of strains was also cultured without palmitic acid addition. These cultures had 0.3% ethanol added instead. All cultures were incubated for an additional 24 hrs before a final addition of 0.3% ethanol. After another 24 hr period of incubation, 1.5 ml of each culture was harvested in 1.7 ml microcentrifuge tubes and pelleted. Supernatant was saved in fresh tubes and pellets were processed as described below. A subset of supernatant samples was also extracted to look for free acid in the extracellular medium.
The mCherry control and confirmed positive variants were rescreened using both palmitic acid and methyl palmitate as substrates. The culturing was conducted as described above with equimolar (1.17 mM) amounts of substrate added from ethanol stock solutions (methyl palmitate 94 g/L stock, 313 mg/L final concentration). The same protocol was also repeated with the full panel of strains using an 84 g/L stock of methyl myristate (C14:0). The final concentration of substrate was again 1.17 mM.
The in vivo bioconversion assay was scaled up for confirmation of (Z)-11-hexadecenoic acid synthesis. 2 ml YPD seed cultures of strains SPV0302, SPV0303, and SPV0304 (mCherry), […], SPV0305, and SPV0306 (A. transitella Z11 desaturase), and SPV0307, SPV0308, and SPV0309 (H. zea Z11 desaturase) were grown overnight at 30° C., 1000 rpm, 80% humidity in the Infors HT Multitron plate shaker. 200 μl of overnight culture from each of the three clonal isolates was pooled and inoculated into a single 125 ml baffled flask containing 20 ml YPD. The resulting three flasks were grown for 24 hrs at 30° C. and 250 rpm (Infors Flask shaker). Cultures were pelleted by centrifugation at 500×g and resuspended in 20 ml of YPD+0.3% (v/v) ethanol and returned to 125 ml baffled shake flasks. Cultures were incubated for an additional 24 hours before addition of 300 mg/L palmitic acid in a 90 g/L stock in ethanol (221 μl per flask). After 24 hours of incubation another 0.3% (v/v) ethanol (221 μl) was added to each flask for sustained induction. Flasks were incubated for an additional 24 hours before cells were harvested for FAME analysis and DMDS derivatization.
Total lipid composition as well as the (Z)-11-hexadecenoic acid quantification was based on modified procedures by Moss et al. (1982) and Yousuf et al (2010). […]

palmitic acid [2] = experiment: in vivo bioconversion of palmitic acid into Z11-hexadecenoic acid in Y. lipolytica SPV140 and SPV300; type: cell-based, Yarrowia lipolytica; conditions: from ~500 mg/L palmitic acid substrate, 24 well plate assay
Description: Functional activity was assessed by a modification of the protocol used for transmembrane desaturase expression in C. viswanathii SPV053 (See Example 6). Briefly, Y. lipolytica SPV140 and SPV300 derived stains expressing insect desaturases were cultured in rich (YPD) to generate biomass. Using the YPD generated biomass, small scale (2 ml) cultures were cultivated with palmitic acid for a total of 48 hours in 24 deep well plates (See Materials & Methods for detail).
Positive isolates were re-patched onto YPD, grown overnight, and then stored at 4° C. Strains were inoculated from patch plates into 2 ml of YPD in 24 deep well plates (square well, pyramid bottom). Three positive clones were inoculated for each desaturase variant. Three isolates of pPV101 in SPV140 and the parent SPV300 were used as negative controls. Deep well plates were incubated at 28° C. and 250 rpm in the Infors Multitron refrigerated flask shaker for 24 hrs. […] Final cell densities were measured with the Tecan Infinite 200pro plate reader. […]
Total lipid composition as well as the (Z)-11-hexadecenoic acid quantification was based on modified procedures by Moss et al. (1982) and Yousuf et al (2010). […] For the analysis of lipids and the quantification of fatty acids 50 μL of 0.2 M TMSH (trimethylsulfonium hydroxide in methanol) was added and the sample analyzed by GC-FID.

[3] = SPV053, supplementation not stated
[4] = SPV053, with palmitic acid supplementation

B1: H. zea desaturase: Helicoverpa zea Z11 desaturase (AAF81787), SEQ ID NO: 54 (protein, listed as Helicoverpa zea)
chain: MAQSYQSTTVLSEEKELTLQHLVPQASPRKYQIVYPNLITFGYWHIAGLYGLYLCFTSAKWATILFSYILFVLAEIGITAGAHRLWAHKTYKAKLPLEILLMVFNSIAFQNSAIDWVRDHRLHHKYSDTDADPHNASRGFFYSHVGWLLVRKHPEVKKRGKELNMSDIYNNPVLRFQKKYAIPFIGAVCFALPTMIPVYFWGETWSNAWHITMLRYIMNLNVTFLVNSAAHIWGNKPYDAKILPAQNVAVSVATGGEGFHNYHHVFPWDYRAAELGNNSLNLTTKFIDLFAAIGWAYDLKTVSEDMIKQRIKRTGDGTDLWGHEQNCDEVWDVKDKSS
- rescue of ΔOLE1 growth without UFA (S. cerevisiae ΔOLE1; minimal medium (CM-Ura glucose) agar plate): conferred growth without UFA
- rescue of ΔOLE1 growth without UFA (S. cerevisiae ΔOLE1; rich medium (YPD) agar plate): conferred growth without UFA
- (Z)-11-hexadecenoic acid titer (palmitic acid [1]; SPV053): ~5.96 mg/L
- activity on myristoyl-CoA (palmitic acid [1]; SPV053, methyl myristate substrate): some activity on myristoyl-CoA
- (Z)-11/(Z)-9 hexadecenoic acid ratio (palmitic acid [1]; SPV053, palmitic acid supplemented): 1.4
- (Z)-9-hexadecenoic acid in C16-fatty acid composition (palmitic acid [1]; [3]): ~30.91%
- (Z)-11-hexadecenoic acid in C16-fatty acid composition (palmitic acid [1]; [3]): ~19.1%
- hexadecanoic acid in C16-fatty acid composition (palmitic acid [1]; [3]): approximately 50.0%
- (Z)-9-hexadecenoic acid in C16-fatty acid composition (palmitic acid [1]; [4]): 17.5%
- (Z)-11-hexadecenoic acid in C16-fatty acid composition (palmitic acid [1]; [4]): 24.4%
- hexadecanoic acid in C16-fatty acid composition (palmitic acid [1]; [4]): 58.1%
- (Z)-11/(Z)-9 hexadecenoic acid ratio (palmitic acid [1]; SPV053, without palmitic acid supplementation): 0.6
- Z11-hexadecenoic acid production (palmitic acid [2]): ~100 mg/L

From patent US11866760B2, “Microorganisms for the production of insect pheromones and related compounds” (Provivi, Inc., priority 2017, dated 2024)
